Drawing on article PMC4974930, this text covers crosslinking ratio for four substances.

Like-named read-outs stand apart in the source and are kept apart here.

Assay in all cases: cross-linking; 0.3 mg/ml purified F1 mutant in buffer A (20 mM HEPES pH 7.4, 100 mM KCl, 5 mM MgCl2, 5% glycerol) with trans-ABDM (azobenzene-dimaleimide), at least 2 h at room temperature, quenched with 1 mM DTT; 8% SDS-PAGE, intensity of the α/β dimer band relative to the monomer bands
Assay [1] has as its target E. coli F1 ATPase β subunit, cysteine-less, 6xHis-tagged, S327C (E. coli).
The target of assay [2] is E. coli F1 ATPase β subunit, cysteine-less, 6xHis-tagged, Q324C (E. coli).
Assay [3] concerns the target E. coli F1 ATPase β subunit, cysteine-less, 6xHis-tagged, V409C (E. coli).
Assay [4] has the same target. This is another data set of the same source.
Assay [5] deals with E. coli F1 ATPase β subunit, cysteine-less, 6xHis-tagged, G412C (E. coli).

As to “E. coli F1 ATPase α subunit, cysteine-less, N369C (from UniProt P0ABB0 1-513) (natural protein)”, the crosslinking ratio in assay [1] amounted to 0.2.

Turning to “E. coli F1 ATPase α subunit, cysteine-less, S338C (from UniProt P0ABB0 1-513) (natural protein)”, in assay [2], the crosslinking ratio worked out at 0.2.

As for “E. coli F1 ATPase α subunit, cysteine-less, A380C (from UniProt P0ABB0 1-513) (natural protein)”, the crosslinking ratio stood at 0.3 in assay [3] and 0.4 in assay [4].

On to “E. coli F1 ATPase α subunit, cysteine-less, G379C (from UniProt P0ABB0 1-513) (natural protein)”, for which, in assay [5], the crosslinking ratio was 0.3.
